The target in series [1] is Taq 42 G59W;L245M;L375V;E507K;K508R;E734G;F749I (Thermus aquaticus) (UniProt P19821). The series is described as follows: EMSA. Particulars: 3' end blocked with dideoxy TMP (3' ddT; unclear whether the printed 3' T is the ddT or it is added); 0.25 nM hairpin, 0.5-1000 nM enzyme, 1x Taq buffer (50 mM KCl for wild type, 95 mM KCl for mutants; full composition and pH not stated for this assay), 37 C ….

Series [2] concerns the target Taq 1C2 (Thermus aquaticus) (UniProt P19821). The series is described as follows: EMSA. Particulars: 3' end blocked with dideoxy TMP (3' ddT; unclear whether the printed 3' T is the ddT or it is added); 0.25 nM hairpin, 0.5-1000 nM enzyme, 1x Taq buffer (50 mM KCl for wild type, 95 mM KCl for mutants; full composition and pH not stated for this assay), 37 C …. (In general: In EMSA bound probe runs differently from free probe, usually more slowly.)

Consider one sequence from PMC4132270.

Broadly, the Kd is a measure of binding affinity in units of concentration. A lower Kd goes with higher affinity. As to “CTCCAGACACGACGCAGTTGCCCGATGGTCGACGTTCGCGAAAGCGAACGTCGACCATCGGGCAACT [hairpin primer-template]”, the Kd in series [1] turned out to be 2.75 nM; in series [2], 1.9 nM.
